Results reported in US11090383 (CENTRE FOR DRUG RESEARCH AND DEVELOPMENT, dated 2021).

Experiments:
cPodo/CHO = experiment: flow cytometry, live cPodo/CHO cells; Mock/CHO with this antibody: 2%
[1] = molecular target: WT Podocalyxin (on normal cells and tissues) (human) (UniProt O00592); experiment: flow cytometry, live HUVEC cells
[2] = molecular target: WT Podocalyxin (on normal cells and tissues) (human) (UniProt O00592); experiment: flow cytometry, live 293 cells
[3] = molecular target: WT Podocalyxin (on normal cells and tissues) (human) (UniProt O00592); experiment: IHC, Normal Kidney
[4] = molecular target: T1, human podocalyxin as displayed on tumor cells (A172, SKOV3, MIA PaCa-2, MDA-MB-231, OVCAR10) (human, UniProt O00592 23-558, post-translational glycan recognised by Podo447 (O-linked, with beta-GalNAc that may be terminal; site not stated)); experiment: KinExA, titrated A172 cells with constant antibody, free antibody measured
T1 construct: Endogenous podocalyxin of tumor cell lines, on cells, in lysates or in cryosections; also called tumor-associated Podocalyxin
T1 chain: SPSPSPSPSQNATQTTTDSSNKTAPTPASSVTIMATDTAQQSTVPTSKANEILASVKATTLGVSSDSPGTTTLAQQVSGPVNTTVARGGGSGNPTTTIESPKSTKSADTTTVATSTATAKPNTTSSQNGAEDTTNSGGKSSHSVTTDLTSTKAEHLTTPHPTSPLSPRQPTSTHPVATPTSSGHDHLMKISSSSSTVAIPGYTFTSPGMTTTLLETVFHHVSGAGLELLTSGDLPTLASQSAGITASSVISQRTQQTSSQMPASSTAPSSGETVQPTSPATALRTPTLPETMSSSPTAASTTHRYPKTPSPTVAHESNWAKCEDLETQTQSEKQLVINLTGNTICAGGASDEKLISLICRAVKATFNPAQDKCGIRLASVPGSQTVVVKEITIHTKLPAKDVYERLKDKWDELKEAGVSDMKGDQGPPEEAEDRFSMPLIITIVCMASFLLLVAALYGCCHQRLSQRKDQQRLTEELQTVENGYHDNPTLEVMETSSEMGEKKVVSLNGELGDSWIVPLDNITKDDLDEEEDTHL
Experimental: Example 13—Determination of Affinity of PODO447 and PODO83 for Cellular PODXL Antigens by Kinetic Exclusion Assay The concentration dependence of free anti-podo antibody as a function of A172 cell number was determined using a Sapidyne KinExA 3200. […] A172 cells and cell bound antibodies were then isolated by centrifugation. Supernatant containing free, unbound antibody was then transferred to a new tube. In the KinExA, a new column of PMMA beads coated with a Gt anti-IgG-Fc capture antibody is packed for each sample assayed. The supernatant containing free unbound antibody is passed over the column. The amount of free antibody captured on the PMMA beads was then measured using a Gt anti-IgG-Fc-A647. The concentration of free antibody over the entire 12 step dilution series was then used to determine the antibody Kd's using the standard Kd template in the KineExA Pro Software.
Table immediately above: Kinetic exclusion assay (KinExA) affinity determination of humanized and rabbit/human chimeric antibodies to Podocalyxin endogenously expressed on A172 cells. A172 cells were titrated and incubated with constant antibody concentrations and allowed to reach equilibrium with a 16 hour incubation. Free, unbound antibody in the supernatant was then captured on the KinExA 3200 using poly(methyl methacrylate) (PMMA) beads coated with goat anti-human IgG-Fc capture antibodies and detected with goat anti-human IgG-Fc-alexa 647 label.

[5] = molecular target: T1, human podocalyxin as displayed on tumor …; experiment: flow cytometry, MIA PaCa-2 PODXL siRNA
Experimental: (§1) Cells were cultured under continuous antibiotic selection with puromycin (4 µg/ml; Invitrogen, Burlington, ON) and G418 (lmg/ml; Calbiochem, Darmstadt, Germany). shRNA constructs were generously provided by Dr. John Wilkins (University of Manitoba, Winnipeg, MB) and the infections were performed by Michelle Turvey and Dr. Shaun McColl (University of Adelaide, Australia). 2.5×10^5 MIA PaCa-2 cells were seeded per well in a 6-well TC-Treated plate (Costar, cat#3516). After incubation overnight, cells were transfected with 10 nM siRNA following the guidelines of the Oligofectamine protocol (cat#12252-011, Invitrogen, Burlington, ON). Pre-Design and validated siRNA (PODXL siRNA, cat# s10770; Negative control No. 1 siRNA, cat#4390843) were obtained from Ambion (Thermo Fisher Scientific, Burlington, ON). Knock-downs were assessed by flow cytometry two days after transfection.
(§2) Sub-confluent cell lines were washed once with Ca^2+ and Mg^2+ free HBSS (Invitrogen, Carlsbad, Calif.) harvested with 0.25% Trypsin/EDTA (Invitrogen, Carlsbad, Calif.). Cells were quenched with normal growth media and centrifuged at 300×g for 5 minutes. Cells were washed once with FACS buffer (2% FBS, 2 mM EDTA, PBS, 0.05% NaAzide). Cells were blocked for 20 minutes at 4° C. in Blocking Buffer (2% rat serum, 2 µg/ml dilution of 2.4G2 (anti-CD16/CD32)) in a 96 well 'v' bottom plate. […]

[6] = molecular target: T1, human podocalyxin as displayed on tumor …; experiment: flow cytometry, titrated antibody on A172 cells, four-parameter fit
Experimental: (§3) Briefly, A172 cells were detached using cell dissociation solution (Sigma-C5914) and incubated with titrated purified antibodies in 96-well V-bottom plates. Antibody binding was detected using a goat anti-human IgG-Fc-Alexa 647 secondary antibody (Jackson 109-605-098) and the cells were analyzed on the Intellicyt high throughput flow cytometer (HTFC).
Table immediately above: Statistical data using Graphpad Prism analysis software representing the data presented above. Values were calculated using a variable slope (four parameters) non-linear regression analysis.

[7] = molecular target: WT Podocalyxin (on normal cells and tissues) (human) (UniProt O00592); experiment: IHC, Normal Cerebellum; Weak and Strong columns hold '-'
[8] = molecular target: T1, human podocalyxin as displayed on tumor …; experiment: KinExA kinetic exclusion assay, antigen: MDA-MB-231 Cells
[9] = molecular target: T1, human podocalyxin as displayed on tumor …; experiment: flow cytometry titration on A172 cells, goat anti-human IgG-Fc-Alexa 647
Experimental: as §3

[10] = molecular target: T1, human podocalyxin as displayed on tumor …; experiment: flow cytometry, MDA.MB.231 Podo KD
Experimental: as §1, §2

## MsIgG2a (antibody)
cPodo/CHO
  % Shifting (FL4) Live Cells: 1%
[1]
  Live cell GeoMean FL: 484
[2]
  Live cell GeoMean FL: 556

## Control Rb/HuIgG1 (antibody)
[1]
  Live cell GeoMean FL: 489
[2]
  Live cell GeoMean FL: 446

B1: Podo447 antibody, recombinant rabbit/human IgG1 chimera (antibody, V domains shown)
VH: QSLEESGGRLVTPGTPLTLTCTASGFSLSGYQMNWVRQAPGKGLEWIGYIWSDGGTDYASWAKGRFTISKTSSTTVDLKMTSLTTEDTATYFCAREGYWLGAFDPWGPGTLVTVSS
VL: AAVLTQTPSPVSAAVGATVSVSCQSSQSVHHKNDLAWFQQKPGQPPKLLIYYTSTLASGVPSRFKGSGSGTQFTLTISDLECDDAATYYCAGVYEGSSDNRAFGGGTEVVVKR
notes: also called anti-Podo
[3]
  IHC score Negative, cases of total: 98%
  IHC score Weak, cases of total: 1.9%
[4]
  Kd: 0.00757 nM
  Kd High: 0.0249 nM
  Kd Low: 0.0023 nM
[5]
  decrease of binding on podocalyxin knockdown (fold): 10 X
[6]
  LogIC50: 2.28
[1]
  Live cell GeoMean FL: 3970
[2]
  Live cell GeoMean FL: 6710
[7]
  IHC score Negative, cases of total: 0 of 10 cases
[8]
  Kd: 0.189 nM
  Kd High: 52.4 nM
  Kd Low: 0.0425 nM
[9]
  EC50 (read off the curve): ~0.2 µg/mL
[10]
  decrease of binding on podocalyxin knockdown (fold): 2.5 X

B2: Humanized Podo447 (humanized_podo447VH_hIgG1C with humanized_podo447VL6_hIgkC) (antibody, V domains shown)
VH: EVQLVESGGGLVQPGRSLRLSCTASGFSLSGYQMNWVRQAPGKGLEWVGYIWSDGGTDYTASVKGRFTISRDGSKSIAYLQMNSLKTEDTAVYYCAREGYWLGAFDPWGQGTSVTVSA
VL: AAQLTQSPSPLSASVGDRVTITCQSSQSVHHKNDLAWYQQKPGKAPKLLIYYTSTLASGVPSRFSGSGSGTDFTLTISSLQPEDFATYYCAGVYEGSSDNRAFGGGTKVEIKR
notes: The labels R0943_A046 and CDRD-0103-001 are tied to this molecule only by the word 'Humanized'; also called R0943_A046 (Humanized); CDRD-0103-001 (Humanized)
[4]
  Kd: 0.0144 nM
  Kd High: 0.0459 nM
  Kd Low: 0.00459 nM
[6]
  LogIC50: 2.09
[9]
  EC50 (read off the curve): ~0.1 µg/mL
